Experimental data: PMC3260246 (PLoS ONE, 2012)
Positions count from the first letter of the chain named. In names and notes the source's numbering stands.

B1: αA-crystallin R12A mutant (natural protein, human, UniProt P02489 1-173, looked up)
chain: MDVTIQHPWFKATLGPFYPSRLFDQFFGEGLFEYDLLPFLSSTISPYYRQSLFRTVLDSGISEVRSDRDKFVIFLDVKHFSPEDLTVKVQDDFVEIHGKHNERQDDHGYISREFHRRYRLPSNVDQSALSCSLSADGMLTFCGPKIQTGLDATHAERAIPVSREEKPTSAPSS
B2: wild-type human αB-crystallin (natural protein, UniProt P02511 1-175, looked up)
chain: MDIAIHHPWIRRPFFPFHSPSRLFDQFFGEHLLESDLFPTSTSLSPFYLRPPSFLRAPSWFDTGLSEMRLEKDRFSVNLDVKHFSPEELKVKVLGDVIEVHGKHEERQDEHGFISREFHRKYRIPADVDPLTITSSLSSDGVLTVNGPRKQVSGPERTIPITREEKPAVTAAPKK
notes: αB-crystallin, human; The reverse primer carries no stop codon; Large oligomer (molar mass about 4.8e5 g/mol by light scattering); also called αBWt; Wt αB-crystallin; source: E. coli BL21(DE3), purified (gel filtration, ion-exchange chromatography)
B3: αB-crystallin R12A mutant (natural protein, human, UniProt P02511 1-175, looked up)
chain: B2 chain with R12A
notes: αB-crystallin, human, R12A made by site-directed mutagenesis on the Wt cDNA in pET23a; Same construct as m3 with R12A; also called αB_(R12A); source: E. coli BL21(DE3), purified (gel filtration, ion-exchange chromatography)

Biological target: the molecule itself
Experiment: multi-angle light scattering; molar mass and hydrodynamic radius of wild-type and R12A proteins, ASTRA 5.3.4; conditions as in refs 32, 58

Protein | binding result
B1 | binds
B2 | binds
B3 | binds
